Data set [1] concerns CC(=O)Oc1ccc([N+](=O)[O-])cc1. Description: purified protein. The conditions noted are these: free enzyme; emulsified substrate.
Data set [2] relates to CCCCCCCCCCCCCCCC(=O)Oc1ccc([N+](=O)[O-])cc1. Briefly: purified protein. The conditions noted are these: free enzyme; emulsified substrate.
In data set [3] the test system is CC(=O)Oc1ccc([N+](=O)[O-])cc1. Briefly: p-nitrophenol release, Lineweaver-Burk. Type of data set: biochemical, Rhizopus microsporus. The conditions noted are these: RCLCYS, engineered disulfide C95-C214; free enzyme; emulsified substrate. An excerpt: (§1) p-nitrophenol release, Lineweaver-Burk on RCL (R. chinensis lipase)
Data set [4] relates to CCCCCCCCCCCCCCCC(=O)Oc1ccc([N+](=O)[O-])cc1. Description: p-nitrophenol release, Lineweaver-Burk. The data set is classed as biochemical, Rhizopus microsporus. Conditions: RCLCYS, engineered disulfide C95-C214; free enzyme; emulsified substrate.
Text: as §1

For “RCL (R. chinensis lipase) (Rhizopus microsporus var. chinensis)”, in data set [1], the Michaelis constant (Km) is 295 ± 6 µM and the kcat is 17.7 ± 0.2 s⁻¹. Also, in data set [2], the Km was 304 ± 7 µM and the kcat amounted to 18.9 ± 0.4 s⁻¹.

Turning to “RCL (R. chinensis lipase) (Rhizopus microsporus var. chinensis; F215C/F334C)”, the Km in data set [3] was determined as 298 ± 8 µM; in data set [4], 450 ± 6 µM. The values for the kcat in data set [3] and in data set [4] were 17.3 ± 0.2 s⁻¹ and 18.4 ± 0.2 s⁻¹, respectively.

In general, Km refers to the concentration of substrate that gives half-maximal velocity. What is called kcat is the number of substrate molecules converted per active site and unit of time at saturation.
